Molecular target: T1, His6-tagged extracellular domain of human CD8A (human, UniProt P01732 22-182)
T1 construct: extracellular domain; coated on the solid phase for panning and for the ELISA screening; also called Hiss-tagged extracellular domain of human CD8A; not shown: His tag
Experiment: ELISA, crude periplasmic extracts on coated His-tagged extracellular domain of human CD8A
Procedure: Three consecutive rounds of panning of a VHH library were performed on solid-phase coated Hiss-tagged extracellular domain of human CD8A (200 μg/ml, 20 μg/well). The enrichment for antigen-specific phages was assessed after each round of panning by comparing the number of phagemid particles eluted from antigen-coated wells with the number of phagemid particles eluted from only-blocked wells (negative control wells). […] 285 colonies (95 & 190 from 2nd and 3rd rounds, respectively) were randomly selected and analyzed by ELISA for the presence of antigen-specific VHHs in their periplasmic extracts (ELISA using crude periplasmic extracts including soluble VHHs). The antigen used for the ELISA screening was the same as the one used for immunization and panning. Out of these 285 colonies, 64 colonies (3 and 61 from 2nd and 3rd rounds of panning, respectively) scored positive in this assay. Based on sequence data, the 64 positive colonies represented 16 different VHHs. The 16 different VHHs belong to 6 different CDR3 groups. Table 2 below provides a description of 3 clones representing the 3 different anti-human CD8A VHH genes. E. coli TG1 harboring recombinant phagemid pMECS containing anti-human CD8A VHH sequences was generated and stored at −80° C. The vector pMECS codes for ampicillin resistance.

T1 sequence (P01732 22-182): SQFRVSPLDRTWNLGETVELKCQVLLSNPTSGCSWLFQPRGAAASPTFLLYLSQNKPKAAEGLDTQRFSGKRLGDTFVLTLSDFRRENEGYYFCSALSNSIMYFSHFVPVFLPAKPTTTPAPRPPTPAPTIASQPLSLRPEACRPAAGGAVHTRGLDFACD

Binder | binding result
R2HCD26 (VHH, not shown: His tag (His-tagged VHHs); the vectors described carry His6 at the C-terminus; exact junction of the tested form not sta) VHH: QVQLQESGGGLVQAGGSLRLSCAASGFTFDDYAIGWFRQAPGKEREGVSCIRVSDGSTYYADPVKGRFTISSDNAKNTVYLQMNSLKPEDAAVYYCAAGSLYTCVQSIVVVPARPYYDMDYWGKGTQVTVSS | binds
R3HCD27 (VHH, not shown: His tag (His-tagged VHHs); the vectors described carry His6 at the C-terminus; exact junction of the tested form not sta) VHH: QVQLQESGGGSVQPGGSLRLSCAASGFTFDDYAMSWVRQVPGKGLEWVSTINWNGGSAEYAEPVKGRFTISRDNAKNTVYLQMNSLKLEDTAVYYCAKDADLVWYNLSTGQGTQVTVSS | binds
R3HCD129 (VHH, not shown: His tag (His-tagged VHHs); the vectors described carry His6 at the C-terminus; exact junction of the tested form not sta) VHH: QVQLQESGGGLVQPGGSLRLSCAASGFTFDDYAMSWVRQVPGKGLEWVSTINWNGGSAEYAEPVKGRFTISRDNAKNTVYLQMNSLKLEDTAVYYCAKDADLVWYNLRTGQGTQVTVSS | binds

— patent US20190071500A1 (ORIONIS BIOSCIENCES, published 2019)
